According to patent publication US7371529B2, “Methods and compositions for modulating gluconeogenesis using PGC-1” (Dana-Farber Cancer Institute, Inc., priority 2001, dated 2008):

Target: T1, FKHR (Homo sapiens, UniProt Q12778)
T1 construct: made in house; host or cells: in vitro translation
Assay: In vitro interaction with in vitro translated FKHR
Format: binding
Details: GST fusion constructs

T1 sequence (Q12778 whole entry, species assumed): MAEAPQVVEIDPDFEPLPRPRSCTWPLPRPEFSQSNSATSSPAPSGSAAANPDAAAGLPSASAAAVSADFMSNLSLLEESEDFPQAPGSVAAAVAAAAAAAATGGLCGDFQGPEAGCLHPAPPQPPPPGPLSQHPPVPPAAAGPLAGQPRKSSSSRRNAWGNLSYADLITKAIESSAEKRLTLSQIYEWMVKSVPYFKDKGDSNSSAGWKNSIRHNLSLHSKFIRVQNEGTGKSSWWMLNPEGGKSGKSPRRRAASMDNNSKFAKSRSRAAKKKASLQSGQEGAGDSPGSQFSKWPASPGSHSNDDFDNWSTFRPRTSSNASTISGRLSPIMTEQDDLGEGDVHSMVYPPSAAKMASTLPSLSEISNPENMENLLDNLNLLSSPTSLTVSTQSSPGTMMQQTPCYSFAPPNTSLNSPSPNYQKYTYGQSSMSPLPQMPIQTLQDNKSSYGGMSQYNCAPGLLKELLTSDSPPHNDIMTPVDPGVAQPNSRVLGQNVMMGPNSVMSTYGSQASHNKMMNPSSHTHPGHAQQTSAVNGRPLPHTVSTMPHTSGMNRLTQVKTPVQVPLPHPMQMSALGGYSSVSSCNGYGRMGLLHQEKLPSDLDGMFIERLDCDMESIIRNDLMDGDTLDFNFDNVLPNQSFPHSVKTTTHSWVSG

B1: GST-PGC-1 (amino acids 1-190): GST fusion protein of amino acids 1-190 of PGC-1 (SEQ ID NO:2) (protein)
chain: MAWDMCSQDSVWSDIECAALVGEDQPLCPDLPELDLSELDVNDLDTDSFLGGLKWCSDQSEIISNQYNNEPANIFEKIDEENEANLLAVLTETLDSLPVDEDGLPSFDALTDGAVTTDNEASPSSMPDGTPPPQEAEEPSLLKKLLLAPANTQLSYNECSGLSTQNHAANHTHRIRTNPAIVKTENSWSN
modifications: left off: a dimerising Fc or GST
physical interaction with FKHR: not
